For test [1], the system named is human umbilical vein endothelial cells (HUVEC) expressing GFP and normal human dermal fibroblasts (NHDF). As to the kind of experiment: Angiogenesis assay (vascular tube formation, HUVEC/NHDF co-culture). Particulars: VEGF 4 ng/ml; vNAR at eight concentrations. The test is classed as cell-based. As to the method:
In the vascular tube formation assay, a co-culture system of human umbilical vein endothelial cells (HUVEC) expressing GFP and normal human dermal fibroblasts (NHDF) was used. For cell seeding on day 0, one cryogenic vial of NHDF cells was thawed and resuspended in 12 ml of complete seeding medium. Then, 100 μl of this solution was added per well of a 96-well plate. The cells were incubated at room temperature for 1 hour. Then, 1 cryogenic vial of HUVECs was thawed and resuspended in 12 ml of complete seeding medium. HUVEC (100 μL per well) were seeded into the same plate as NHDFs. The cells were incubated at room temperature for another hour. The plate was then examined in an IncuCyte ZOOM and scanned using the “FOIL” scan type. After 24 hours, the culture medium was replaced with 150 μl of growth medium.
Forty-eight hours after seeding, the cells were treated with VEGF at 4 ng/ml and the test compounds at eight concentrations.
Serial dilutions of the compounds were prepared using assay media containing VEGF up to the final concentrations in FIG. 3. Then, 150 μl of medium containing the vNARs were added. In untreated wells, media without VEGF were added. For wells without compound, media with VEGF was added. […]
The formation of vessel tubes by fluorescently-labeled HUVECs was measured using live-cell imaging, and the effects of the vNARs on this process were assessed.

Test [2] concerns Murine Lewis lung cancer cell lines. Kind of test: VEGF inhibition in vivo, ND-GFP nude mice with Lewis lung cancer footpad implant. Particulars: for capillary growth around the tumor (vessel density): 27 μg vNAR i.p. twice per week, 6 doses over 18 days, vs untreated controls; for Normalized tumor weight / reduction of the tumor (weight), statistical significance: after day 18, 27 μg vNAR i.p., 6 doses; for Normalized tumor weight: n=8, PBS = 1.0 (100%); for reduction of the tumor (weight), statistical significance: vs PBS. As to the method:
In vivo tests were conducted at AntiCancer, Inc. (San Diego, Calif., USA) in accordance with its protocols for handling animals approved under Assurance #A3873-1, and also approved by the Bioethics Committee of the Center for Scientific Research and Higher Education of Ensenada, Baja California (CICESE), approval number 2014/03. In order to minimize the suffering of the animals, anesthesia and analgesics were used for all surgical experiments. Animals were anesthetized by subcutaneous injection of a solution of 0.02 ml of ketamine 20 mg/kg, 15.1 mg/kg xylazine, and 0.48 mg/kg of acepromazine maleate. Animals responses during surgery were monitored to ensure adequate depth of anesthesia. The animals were observed daily and humanely sacrificed through CO2 inhalation when they met the following endpoint criteria: severe tumor burden (more than 20 mm in diameter), prostration, significant body weight loss, difficulty breathing, rotational motion, and body temperature drop. Animals were housed in a barrier facility, on a high-efficiency particulate arrestance-filtered rack under standard conditions of light/dark cycles of 12 hours. Animals were fed an autoclaved laboratory rodent diet. Eight nestin-driven GFP (ND-GFP) mice were used [Amoh Y, Yang M, Li L, Reynoso J, Bouvet M, Moossa A R, Katsuoka K, Hoffman R M. Nestin-driven green fluorescent protein transgenic nude mouse for imaging human tumor angiogenesis. Cancer Res. 2005; 65: 5352-5357], individuals from 6 to 10 weeks old were used per group. ND-GFP mice expressed GFP in nascent blood vessels. Murine Lewis lung cancer cell lines, stably transfected with red fluorescent protein (RFP) were used for implantation of foot cancer cells in the plantar pad (5×10^5 cells in 25 μl). The treatment began 3 days after implantation of cancer cells. All vNARs were administered intraperitoneally (i.p.) twice per week for a total of 6 doses over 18 days; each administration contained 27 μg of VNAR in 180 μl of PBS. After day 18, the implanted footpad of the mice in each group was imaged for GFP-expressing blood vessels. The vessel density was calculated as the total length of the blood vessels divided by the observed area. Each individual tumor was collected and, the weighed (g).

The target of the next test is T1, VEGF165 (Homo sapiens, UniProt P15692).
T1 sequence (P15692 27-191 isoform P15692-4): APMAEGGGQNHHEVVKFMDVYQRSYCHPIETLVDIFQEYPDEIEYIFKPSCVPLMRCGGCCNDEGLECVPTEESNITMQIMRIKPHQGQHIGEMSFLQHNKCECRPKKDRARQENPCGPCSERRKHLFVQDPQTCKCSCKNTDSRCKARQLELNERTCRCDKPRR
Kind of test: ELISA test recognition. It is filed as binding. Particulars: ELISA plates coated with VEGF165; compared with parental V13. How it is done:
Decreasing concentrations of each vNAR were added to measure the recognition of VEGF compared to V13, which is the parental antibody.
ELISA plates were coated with the same amount of VEGF165; then, the wells were blocked with 3% BSA, several dilutions of clones P98Y and R97A, and the parental sequence (V13) were added.
(In general: ELISA stands for enzyme-linked immunosorbent assay.)

Where a chain is given by its changes, count along the chain named. Numbers in names are those of the source.

B1: P98Y: anti-VEGF vNAR protein, P98Y mutation in CDR3 of parental V13; corresponds to SEQ ID NO:1 (protein)
chain: ASLDQTPRTATRETGESLSINCVLTDTSHILFGTKWLWNNPGSTDWESITIGGRYAESVNNQAKSFSLQIKDLTVEDSGTYYCKAQTIGRRKNLLPRYLVNGIAAMGYSSSDYDGAGTVLTVN
modifications: Artificial sequence against VEGF, with single mutation in the CDR3 region from a parenteral vNAR sequence.
With B1, the “inhibition of angiogenesis (tube length and network branching)” value in test [1] is on record as “especially potent inhibitors of angiogenesis”. Besides, in test [2], the “capillary growth around the tumor (vessel density)” value is recorded as “reduced capillary growth around the tumor”; the Normalized tumor weight worked out at 0.71; the “reduction of the tumor (weight), statistical significance” value is listed as “statistically significant reduction of the tumor”. Besides, in test [2] (listed as SEQ ID NO:1), the “reduction of the tumor (weight), statistical significance” value is “allows reducing the size of the tumor masses”. In addition, the “recognition of VEGF” value with VEGF165 was “greater recognition of VEGF than the parental”.

B2: R97A: anti-VEGF vNAR mutant, R97A mutation in CDR3 of parental V13 (protein)
chain: B1 chain with R97A, Y98P
For the molecule B2, in test [2], the “capillary growth around the tumor (vessel density)” value is “comparable with parental v13 VNAR” and the Normalized tumor weight is reported as 0.76.

The record behind these values is patent US11155612B2, “vNAR antibody which binds VEGF for use in dogs or cats” (CENTRO DE INVESTIGACIÓN CIENTÍFICA Y DE EDUCACIÓN SUPERIOR …, priority 2017, dated 2021).
